B1: probe A (BRRE A, AMT1;2 promoter P4) (dsDNA)
DNA 1: GTCTCACCGGGCTGCGTGCGTACGCCGATA
DNA 2: TATCGGCGTACGCACGCAGCCCGGTGAGAC
B2: probe B (BRRE B, AMT1;2 promoter P4) (dsDNA)
DNA 1: TGGTCGCATCGTCGTGCGTGAGCTGCCTATCG
DNA 2: CGATAGGCAGCTCACGCACGACGATGCGACCA

How the values were obtained:
His:BZR1 [1] = target: T1, His:BZR1 (Oryza sativa (rice), UniProt Q7XI96 1-298); assay: EMSA; slightly weaker than probe B; EMSA: 1 ug His:BZR1, 40k cpm 32P-labeled probe; buffer, salt, pH and temperature not given (protocol of Je et al., 2010); conditions: protein: recombinant; tags: His (pET28a(+)); chain copies: 2; label: 32P; blunt
T1 sequence: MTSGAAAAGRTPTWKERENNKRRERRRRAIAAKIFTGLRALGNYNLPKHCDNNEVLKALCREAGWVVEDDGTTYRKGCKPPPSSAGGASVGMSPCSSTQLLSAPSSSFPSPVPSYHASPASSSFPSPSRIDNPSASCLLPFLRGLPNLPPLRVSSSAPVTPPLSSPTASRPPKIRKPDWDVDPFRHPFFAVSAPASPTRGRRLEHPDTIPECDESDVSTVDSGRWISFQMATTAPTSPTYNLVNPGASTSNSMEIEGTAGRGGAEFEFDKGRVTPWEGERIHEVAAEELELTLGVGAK

His:BZR1 [2] = target: T1, His:BZR1; assay: EMSA; stronger than probe A; EMSA: 1 ug His:BZR1, 40k cpm 32P-labeled probe; buffer, salt, pH and temperature not given (protocol of Je et al., 2010); conditions: protein: recombinant; tags: His (pET28a(+)); chain copies: 2; label: 32P; blunt

Binder | binding result (His:BZR1 [1]) | binding result (His:BZR1 [2])
B1 | binds | 
B2 |  | binds

From paper PMC8247761, “BZR1 Regulates Brassinosteroid-Mediated Activation of AMT1;2 in Rice”
